Results taken from patent US20150266977A1 (AbbVie / Abbott, published 2015).

T1: recombinant human sclerostin (human, UniProt Q9BQB4 24-213)
T1 construct: biotinylated in the ELISAs; also called hu sclerostin; hu scl
T1 sequence: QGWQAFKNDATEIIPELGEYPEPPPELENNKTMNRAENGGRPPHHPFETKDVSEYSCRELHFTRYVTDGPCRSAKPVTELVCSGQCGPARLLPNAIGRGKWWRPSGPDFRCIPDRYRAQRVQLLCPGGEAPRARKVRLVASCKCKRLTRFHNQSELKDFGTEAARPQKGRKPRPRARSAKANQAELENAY

B1: MAK199-1-GS-AE10-6 AM7 (bispecific antibody, human IgG1, lambda, L234A L235A)
heavy: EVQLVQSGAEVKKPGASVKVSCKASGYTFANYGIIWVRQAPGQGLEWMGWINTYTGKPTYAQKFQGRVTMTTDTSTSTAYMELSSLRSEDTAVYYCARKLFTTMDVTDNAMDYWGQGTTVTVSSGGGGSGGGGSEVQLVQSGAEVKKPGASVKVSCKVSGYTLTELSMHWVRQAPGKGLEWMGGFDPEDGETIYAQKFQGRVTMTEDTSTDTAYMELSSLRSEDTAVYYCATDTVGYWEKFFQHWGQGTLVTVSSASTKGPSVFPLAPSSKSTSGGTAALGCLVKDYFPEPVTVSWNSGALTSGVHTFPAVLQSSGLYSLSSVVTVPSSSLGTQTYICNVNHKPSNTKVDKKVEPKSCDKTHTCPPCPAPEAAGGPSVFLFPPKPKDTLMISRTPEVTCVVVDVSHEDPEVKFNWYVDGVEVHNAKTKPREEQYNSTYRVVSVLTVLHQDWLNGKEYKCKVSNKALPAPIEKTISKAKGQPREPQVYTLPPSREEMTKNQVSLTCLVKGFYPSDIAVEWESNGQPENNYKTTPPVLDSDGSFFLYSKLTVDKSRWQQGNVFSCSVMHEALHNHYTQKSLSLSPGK
light: DIQMTQSPSSLSASVGDRVTITCRASQDISQYLNWYQQKPGKAPKLLIYYTSRLQSGVPSRFSGSGSGTDFTLTISSLQPEDFATYFCQQGNTWPPTFGQGTKLEIKRGGSGGGGSGQAVVTQEPSLTVSPGGTVTLTCGSSTGTVTIDHYPYWFQQKPGQAPRTLISDTDDKHSWTPARFSGSLLGGKAALTLSGAQPEDEAEYYCLLDYGGRFVFGGGTKLTVLGQPKAAPSVTLFPPSSEELQANKATLVCLISDFYPGAVTVAWKADSSPVKAGVETTTPSKQSNNKYAASSYLSLTPEQWKSHRSYSCQVTHEGSTVEKTVAPTECS
notes: DVD-Ig: outer MAK199-1, inner AE10-6 AM7; also called MAK199-1-GS-AM10-6 AM7; MAK199-1GSAM10-6 AM7
B2: MAK199-1-SS-AE10-6 AM7 (bispecific antibody, human IgG1, lambda, L234A L235A)
heavy: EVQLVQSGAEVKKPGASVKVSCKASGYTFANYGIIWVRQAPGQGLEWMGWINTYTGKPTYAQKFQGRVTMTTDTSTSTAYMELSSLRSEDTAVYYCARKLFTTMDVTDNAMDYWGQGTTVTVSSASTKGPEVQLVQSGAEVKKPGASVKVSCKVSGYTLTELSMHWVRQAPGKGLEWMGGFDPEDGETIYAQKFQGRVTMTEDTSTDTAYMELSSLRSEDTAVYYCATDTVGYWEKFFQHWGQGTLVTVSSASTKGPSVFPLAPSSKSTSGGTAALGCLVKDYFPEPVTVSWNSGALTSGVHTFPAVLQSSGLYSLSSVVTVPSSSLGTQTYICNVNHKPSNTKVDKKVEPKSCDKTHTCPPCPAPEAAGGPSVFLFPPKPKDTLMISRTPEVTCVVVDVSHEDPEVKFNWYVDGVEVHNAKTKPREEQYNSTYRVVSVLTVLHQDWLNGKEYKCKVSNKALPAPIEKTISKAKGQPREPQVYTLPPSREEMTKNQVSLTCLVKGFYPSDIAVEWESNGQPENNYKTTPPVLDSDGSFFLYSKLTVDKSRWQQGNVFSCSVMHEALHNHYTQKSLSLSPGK
light: DIQMTQSPSSLSASVGDRVTITCRASQDISQYLNWYQQKPGKAPKLLIYYTSRLQSGVPSRFSGSGSGTDFTLTISSLQPEDFATYFCQQGNTWPPTFGQGTKLEIKRTVAAPQAVVTQEPSLTVSPGGTVTLTCGSSTGTVTIDHYPYWFQQKPGQAPRTLISDTDDKHSWTPARFSGSLLGGKAALTLSGAQPEDEAEYYCLLDYGGRFVFGGGTKLTVLGQPKAAPSVTLFPPSSEELQANKATLVCLISDFYPGAVTVAWKADSSPVKAGVETTTPSKQSNNKYAASSYLSLTPEQWKSHRSYSCQVTHEGSTVEKTVAPTECS
notes: DVD-Ig: outer MAK199-1, inner AE10-6 AM7

Assays:
[1] = target: T2, recombinant cynomolgus monkey sclerostin (cynomolgus monkey); experiment: SPR
T2 construct: also called cyno sclerostin; Cyno sclerostin

[2] = target: T1, recombinant human sclerostin; experiment: SPR
recombinant human TNF-α [3] = target: T3, recombinant human TNF-α (human, UniProt P01375 77-233); experiment: SPR
T3 construct: also called huTNF; Human TNFa

Rhesus/cynoTNFa = Rhesus/cynoTNFa (Rhesus/cyno); experiment: cell-based or functional assay
recombinant human TNF-α [4] = target: T3, recombinant human TNF-α; experiment: cell-based or functional assay
recombinant human TNF-α [5] = target: T3, recombinant human TNF-α; experiment: cell-based or functional assay; remark: listed apart in the source

T3 sequence (P01375 77-233 limits assumed): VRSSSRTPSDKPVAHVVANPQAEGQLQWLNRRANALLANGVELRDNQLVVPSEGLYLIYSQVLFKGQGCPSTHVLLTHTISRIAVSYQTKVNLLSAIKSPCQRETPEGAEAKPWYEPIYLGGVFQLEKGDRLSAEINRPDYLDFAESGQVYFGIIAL
Rhesus/cynoTNFa (Rhesus/cyno), sequence (P48094 whole entry): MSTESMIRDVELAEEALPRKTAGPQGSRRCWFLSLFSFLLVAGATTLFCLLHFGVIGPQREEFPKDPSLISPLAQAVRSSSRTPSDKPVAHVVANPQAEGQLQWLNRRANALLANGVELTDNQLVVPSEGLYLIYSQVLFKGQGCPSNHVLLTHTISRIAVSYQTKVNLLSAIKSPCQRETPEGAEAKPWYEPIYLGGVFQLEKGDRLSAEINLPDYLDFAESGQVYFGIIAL

Row | Binder | Kd [1] [pM] | koff [1] [s⁻¹] | kon [1] [M⁻¹ s⁻¹] | Kd [2] [nM] | koff [2] [s⁻¹] | kon [2] [M⁻¹ s⁻¹] | Kd (recombinant human TNF-α [3]) [nM] | koff (recombinant human TNF-α [3]) [s⁻¹] | kon (recombinant human TNF-α [3]) [M⁻¹ s⁻¹] | L929 TNF neutralization IC50 (Rhesus/cynoTNFa) [pM] | L929 TNF neutralization IC50 (recombinant human TNF-α [4]) [pM] | L929 TNF neutralization IC50 with 50 nM SOST (recombinant human TNF-α [5]) [pM] | L929 TNF neutralization IC50 without 50 nM SOST (recombinant human TNF-α [5]) [pM]
1 | B1 | < 0.11 | < 1e-06 | 9.3e+06 | 0.00039 | 2.3e-06 | 5.9e+06 | 0.027 | 5.8e-05 | 2.1e+06 | 42 | 67.7 | 36 | 25
2 | B2 | – | – | – | 0.052 | 8.3e-06 | 160000 | 0.017 | 4.4e-05 | 2.6e+06 | 56.9 | 58.1 | – | –
